Numbering of substitutions follows the chain as printed. Names may count otherwise.
B1: ΔN123-GBD-CD2 branching sucrase (Leuconostoc mesenteroides) (protein)
chain: QAGHYITKNGNDWQYDTNGELAKGLRQDSNGKLRYFDLTTGIQAKGQFVTIGQETYYFSKDHGDAQLLPMVTEGHYGTITLKQGQDTKTAWVYRDQNNTILKGLQNINGTLQFFDPYTGEQLKGGVAKYDDKLFYFESGKGNLVSTVAGDYQDGHYISQDGQTRYADKQNQLVKGLVTVNGALQYFDNATGNQIKNQQVIVDGKTYYFDDKGNGEYLFTNTLDMSTNAFSTKNVAFNHDSSSFDHTVDGFLTADTWYRPKSILANGTTWRDSTDKDMRPLITVWWPNKNVQVNYLNFMKANGLLTTAAQYTLHSDQYDLNQAAQDVQVAIERRIASEHGTDWLQKLLFESQNNNPSFVKQQFIWNKDSEYHGGGDAWFQGGYLKYGNNPLTPTTNSDYRQPGNAFDFLLANDVDNSNPVVQAENLNWLHYLMNFGTITAGQDDANFDSIRIDAVDFIHNDTIQRTYDYLRDAYQVQQSEAKANQHISLVEAGLDAGTSTIHNDALIESNLREAATLSLTNEPGKNKPLTNMLQDVDGGTLITDHTQNSTENQATPNYSIIHAHDKGVQEKVGAAITDATGADWTNFTDEQLKAGLELFYKDQRATNKKYNSYNIPSIYALMLTNKDTVPRMYYGDMYQDDGQYMANKSIYYDALVSLMTARKSYVSGGQTMSVDNHGLLKSVRFGKDAMTANDLGTSATRTEGLGVIIGNDPKLQLNDSDKVTLDMGAAHKNQKYRAVILTTRDGLATFNSDQAPTAWTNDQGTLTFSNQEINGQDNTQIRGVANPQVSGYLAVWVPVGASDNQDARTAATTTENHDGKVLHSNAALDSNLIYEGFSNFQPKATTHDELTNVVIAKNADVFNNWGITSFEMAPQYRSSGDHTFLDSTIDNGYAFTDRYDLGFNTPTKYGTDGDLRATIQALHHANMQVMADVVDNQVYNLPGKEVVSATRAGVYGNDDATGFGTQLYVTNSVGGGQYQEKYAGQYLEALKAKYPDLFEGKAYDYWYKNYANDGSNPYYTLSHGDRESIPADVAIKQWSAKYMNGTNVLGNGMGYVLKDWHNGQYFKLDGDKSTLPQI
B2: ΔN123-GBD-CD2 branching sucrase (Leuconostoc mesenteroides; F2136L/W2135S) (protein)
chain: B1 chain with W377S, F378L
B3: ΔN123-GBD-CD2 branching sucrase (Leuconostoc mesenteroides; F2163G) (protein)
chain: B1 chain with F405G

Substrate: OC[C@H]1O[C@@](CO)(O[C@H]2O[C@H](CO)[C@@H](O)[C@H](O)[C@H]2O)[C@@H](O)[C@@H]1O
Test: sucrose hydrolysis, HPLC-CAD, Michaelis-Menten fit
Assay type: biochemical, Leuconostoc mesenteroides
Conditions: sucrose as sole substrate, 50 mM sodium acetate pH 5.1, 30 °C
From the text: sucrose hydrolysis, HPLC-CAD, Michaelis-Menten fit on ΔN123-GBD-CD2 branching sucrase

Row | Protein | Km | Vmax | kcat
1 | B1 | 30.5 ± 7.2 mM | 77.5 µmol/min/mg | 162 ± 12.7 s⁻¹
2 | B2 | 8.8 ± 1.0 mM | 17.7 µmol/min/mg | 36.9 ± 0.9 s⁻¹
3 | B3 | 7.0 ± 1.2 mM | 16.8 µmol/min/mg | 35.1 ± 0.9 s⁻¹
